The source of these data is patent US20030088884A1.

In assay [1] the target is human LGR8, recombinant, expressed in 293T cells (human) (UniProt Q8WXD0). The experiment in a line: competition with 5 nM biotinylated ovine INSL3 for 293T cells expressing LGR8, 4 C 24 h, 125I-streptavidin detection.
The target of assay [2] is human LGR7, long form (LGR7(1), 757 amino acids), recombinant, expressed in 293T cells (human), Q9HBX9. The assay is described as follows: cell-based or functional assay.
human LGR7, long form (LGR7(1), 757 amino acids), recombinant, expressed in 293T cells (human), Q9HBX9, sequence (Q9HBX9 whole entry): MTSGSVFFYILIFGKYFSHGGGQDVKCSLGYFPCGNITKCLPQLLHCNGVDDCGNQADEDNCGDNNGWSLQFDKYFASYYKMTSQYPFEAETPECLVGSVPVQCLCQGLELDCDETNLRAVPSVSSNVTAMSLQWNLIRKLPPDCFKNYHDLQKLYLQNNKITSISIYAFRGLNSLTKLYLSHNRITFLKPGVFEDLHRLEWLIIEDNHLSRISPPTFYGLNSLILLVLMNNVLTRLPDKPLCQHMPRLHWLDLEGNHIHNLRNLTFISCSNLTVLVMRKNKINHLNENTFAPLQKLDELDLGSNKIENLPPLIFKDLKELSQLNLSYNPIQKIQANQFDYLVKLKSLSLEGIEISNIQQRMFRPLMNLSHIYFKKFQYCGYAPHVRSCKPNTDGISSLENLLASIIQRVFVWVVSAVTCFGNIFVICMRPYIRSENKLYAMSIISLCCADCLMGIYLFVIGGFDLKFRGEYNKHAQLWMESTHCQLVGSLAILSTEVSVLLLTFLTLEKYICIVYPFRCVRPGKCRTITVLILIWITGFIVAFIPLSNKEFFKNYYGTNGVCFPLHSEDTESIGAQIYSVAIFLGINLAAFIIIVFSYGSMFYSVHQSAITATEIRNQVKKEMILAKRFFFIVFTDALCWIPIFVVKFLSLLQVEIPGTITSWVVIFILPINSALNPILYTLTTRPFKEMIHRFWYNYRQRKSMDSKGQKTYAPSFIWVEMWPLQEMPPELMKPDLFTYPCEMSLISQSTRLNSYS

UniProt Q8WXD0, sequence (Q8WXD0 whole entry): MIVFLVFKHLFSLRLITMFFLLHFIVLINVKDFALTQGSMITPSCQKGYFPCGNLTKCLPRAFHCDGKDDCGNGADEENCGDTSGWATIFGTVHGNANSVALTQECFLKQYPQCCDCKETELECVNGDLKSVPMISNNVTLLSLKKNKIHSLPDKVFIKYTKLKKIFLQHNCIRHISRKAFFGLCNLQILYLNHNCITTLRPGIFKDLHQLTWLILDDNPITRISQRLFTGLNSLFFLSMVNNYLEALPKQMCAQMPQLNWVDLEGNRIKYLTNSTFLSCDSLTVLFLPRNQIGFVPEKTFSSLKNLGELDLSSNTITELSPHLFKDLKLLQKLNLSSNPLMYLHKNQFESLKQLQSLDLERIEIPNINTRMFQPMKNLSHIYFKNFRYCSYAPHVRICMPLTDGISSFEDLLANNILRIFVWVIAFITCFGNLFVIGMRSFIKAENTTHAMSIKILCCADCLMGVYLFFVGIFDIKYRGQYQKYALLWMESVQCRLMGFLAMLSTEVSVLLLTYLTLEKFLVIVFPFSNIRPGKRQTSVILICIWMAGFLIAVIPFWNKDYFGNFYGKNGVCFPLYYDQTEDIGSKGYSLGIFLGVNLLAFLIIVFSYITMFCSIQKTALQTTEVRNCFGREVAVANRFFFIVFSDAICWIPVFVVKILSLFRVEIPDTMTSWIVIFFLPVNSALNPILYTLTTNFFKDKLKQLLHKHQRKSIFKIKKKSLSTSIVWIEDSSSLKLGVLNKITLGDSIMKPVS

As to “rat INSL3, chemically synthesized (from UniProt Q9WUK0 103-128; Q9WUK0 103-128) (ligand)”, the ED50 in assay [1] came out at 12 nM.

B1: porcine relaxin, P01348 161-182; P01348 25-56 (ligand)
chain 1: RMTLSEKCCQVGCIRKDIARLC
chain 2: QSTNDFIKACGRELVRLWVEICGSVSWGRTAL
B1: the cAMP production by 293T cells expressing human LGR7 in assay [2] was found to be 0.1 nM.
